In patent publication US20100144645A1, “COMPOSITIONS AND METHODS FOR ENHANCING […] POTENCY OF […]-COMPOUNDS, A[…] ADVERSE SIDE EFFECTS, AND […] ABUSE” (SHIRE LLC, priority 2006, published 2010):
Residues, ends and D or L forms follow the SMILES beside them. *: point of attachment. X1 = COc1ccc2c3c1OC1C(O*)=CCC4[C@@H](C2)N(C)CC[C@]314

Key:
[1] = Oral bioavailability of hydrocodone conjugates (plasma hydrocodone plus hydromorphone); settings: for bioavailabiltty (% HC) oral AUC / bioavailabiltty (% HC) oral Cmax: rats, relative to hydrocodone; for Oral:IN Index AUC: ratio of oral to IN AUC (% HC); for Oral:IN Index Cmax: ratio of oral to IN Cmax (% HC)
[2] = Intranasal bioavailability of hydrocodone conjugates; settings: rats, relative to hydrocodone
[3] = stability 90 C., 20 min (V, BP, TW, BS) of hydrocodone conjugates; settings: for stability 90 C., 20 min BP: BP (abbreviation not defined); for stability 90 C., 20 min BS: BS (abbreviation not defined); for stability 90 C., 20 min TW: TW (abbreviation not defined); for stability 90 C., 20 min V: V (abbreviation not defined)

Structure (SMILES)	bioavailabiltty (% HC) oral AUC [1] [% HC]	bioavailabiltty (% HC) oral Cmax [1] [% HC]	Oral:IN Index AUC [1]	Oral:IN Index Cmax [1]	bioavailabiltty (% HC) IN AUC [2] [% HC]	bioavailabiltty (% HC) IN Cmax [2] [% HC]	stability 90 C., 20 min BP [3]	stability 90 C., 20 min BS [3]	stability 90 C., 20 min TW [3]	stability 90 C., 20 min V [3]
CC[C@H](C)[C@H](NC(=O)[C@H](CC(=O)O)NC(=O)[C@H](CC(=O)O)NC(=O)[C@H](CCC(=O)O)NC(=O)[C@@H](N)CCC(=O)O)C(=O)OC1=CCC2[C@H]3Cc4ccc(OC)c5c4[C@@]2(CCN3C)C1O5 (some centres unmarked) [Glu2-Asp2-Ile-HC] (H-EEDDI-X1)	108	129	2.04	1.59	53	81	77	100	15	1
CC[C@H](C)[C@H](NC(=O)CNC(=O)CNC(=O)[C@H](CCC(=O)O)NC(=O)[C@@H](N)CCC(=O)O)C(=O)OC1=CCC2[C@H]3Cc4ccc(OC)c5c4[C@@]2(CCN3C)C1O5 (some centres unmarked) [Glu2-Gly2-Ile-HC, Glu2-Gly2-Ile-Hydrocodone] (H-EEGGI-X1)	81	77	–	–	50	56	99	99	23	0
COc1ccc2c3c1OC1C(OC(=O)[C@H](Cc4ccccc4)NC(=O)CNC(=O)CNC(=O)[C@H](CCC(=O)O)NC(=O)[C@@H](N)CCC(=O)O)=CCC4[C@@H](C2)N(C)CC[C@]314 (some centres unmarked) [Glu2-Gly2-Phe-HC] (H-EEGGF-X1)	110	112	1.24	1.15	89	97	100	100	100	0
CC[C@H](C)[C@H](NC(=O)[C@H](Cc1ccccc1)NC(=O)[C@H](Cc1ccccc1)NC(=O)[C@H](CCC(=O)O)NC(=O)[C@@H](N)CCC(=O)O)C(=O)OC1=CCC2[C@H]3Cc4ccc(OC)c5c4[C@@]2(CCN3C)C1O5 (some centres unmarked) [Glu2-Phe2-Ile-HC] (H-EEFFI-X1)	96	129	1.41	1.70	68	76	100	100	33	0
COc1ccc2c3c1OC1C(OC(=O)[C@H](Cc4ccccc4)NC(=O)[C@H](Cc4ccccc4)NC(=O)[C@H](Cc4ccccc4)NC(=O)[C@H](CCC(=O)O)NC(=O)[C@@H](N)CCC(=O)O)=CCC4[C@@H](C2)N(C)CC[C@]314 (some centres unmarked) [Glu2-Phe3-HC, Glu2-Phe3-Hydrocodone] (H-EEFFF-X1)	83	89	3.07	1.89	27	47	100	84	57	3
CC[C@H](C)[C@H](NC(=O)[C@H](CCC(=O)O)NC(=O)[C@@H](N)CCC(=O)O)C(=O)OC1=CCC2[C@H]3Cc4ccc(OC)c5c4[C@@]2(CCN3C)C1O5 (stereo partly drawn) [Glu-Glu-Ile-HC]	83	112	1.60	1.90	52	59	94	100	26	0
CC[C@H](C)[C@H](NC(=O)[C@H](CCC(=O)O)NC(=O)[C@H](CCC(=O)O)NC(=O)CNC(=O)CN)C(=O)OC1=CCC2[C@H]3Cc4ccc(OC)c5c4[C@@]2(CCN3C)C1O5 (some centres unmarked) [Gly2-Glu2-Ile-HC] (H-GGEEI-X1)	96	119	1.45	1.55	66	77	74	100	11	0
CC[C@H](C)[C@H](NC(=O)[C@@H]1CCCN1C(=O)[C@@H]1CCCN1C(=O)CNC(=O)CN)C(=O)OC1=CCC2[C@H]3Cc4ccc(OC)c5c4[C@@]2(CCN3C)C1O5 (some centres unmarked) [Gly2-Pro2-Ile-HC] (H-GGPPI-X1)	94	121	2.14	2.16	44	56	73	100	70	0
COc1ccc2c3c1OC1C(OC(=O)[C@H](Cc4ccccc4)NC(=O)[C@@H]4CCCN4C(=O)[C@@H](N)CC(C)C)=CCC4[C@@H](C2)N(C)CC[C@]314 (stereo partly drawn) [Leu-Pro-Phe-HC]	106	125	1.28	1.24	83	101	100	100	100	2
CC[C@H](C)[C@H](NC(=O)[C@H](CC(=O)O)NC(=O)[C@H](CC(=O)O)NC(=O)[C@H](CCCCN)NC(=O)[C@@H](N)CCCCN)C(=O)OC1=CCC2[C@H]3Cc4ccc(OC)c5c4[C@@]2(CCN3C)C1O5 (some centres unmarked) [Lys2-Asp2-Ile-HC] (H-KKDDI-X1)	90	121	2.31	2.16	39	56	64	100	0	0
CC[C@H](C)[C@H](NC(=O)[C@@H]1CCCN1C(=O)[C@@H]1CCCN1C(=O)[C@H](CCCCN)NC(=O)[C@@H](N)CCCCN)C(=O)OC1=CCC2[C@H]3Cc4ccc(OC)c5c4[C@@]2(CCN3C)C1O5 (some centres unmarked) [Lys2-Pro2-Ile-HC] (H-KKPPI-X1)	80	76	1.18	0.81	68	94	72	100	66	0
CC[C@H](C)[C@H](NC(=O)[C@H](CCCCN)NC(=O)[C@@H](N)CCCCN)C(=O)OC1=CCC2[C@H]3Cc4ccc(OC)c5c4[C@@]2(CCN3C)C1O5 (stereo partly drawn) [Lys-Lys-Ile-HC]	80	76	1.18	0.81	68	94	100	97	96	0
CC[C@H](C)[C@H](NC(=O)[C@@H]1CCCN1)C(=O)N[C@H](C(=O)OC1=CCC2[C@H]3Cc4ccc(OC)c5c4[C@@]2(CCN3C)C1O5)[C@@H](C)CC (stereo partly drawn) [Pro-Ile-Ile-HC]	104	99	1.21	0.97	86	102	47	100	83	0
